Laboratory results published in patent US8372617B2, “β-galactoside-α2,6-sialyltransferase, a gene encoding thereof, and a method for enhancing enzyme activity” (Japan Tobacco Inc., priority 2007, dated 2013).
Several values for one entry are separate records, joined by “and”; a condition that tells them apart may be missing. Equal entries are not always repeated.

B1: SHIZ145-N1C0: β-galactoside-α2,6-sialyltransferase from strain JT-SHIZ-145 lacking the amino acids of the signal peptide region, expressed in E. coli (protein)
chain: MCNDNQNTVDVVVSTVNDNVIENNTYQVKPIDTPTTFDSYSWIQTCGTPILKDDEKYSLSFDFVAPELDQDEKFCFEFTGDVDGKRYVTQTNLTVVAPTLEVYVDHASLPSLQQLMKIIQQKNEYSQNERFISWGRIRLTEDNAEKLNAHIYPLAGNNTSQELVDAVIDYADSKNRLNLELNTNTGHSFRNIAPILRATSSKNNILISNINLYDDGSAEYVSLYNWKDTDNKSQKLSDSFLVLKDYLNGISSEKPNGIYSIYNWHQLYHSSYYFLRKDYLTVETKLHDLREYLGGSLKQMSWDTFSQLSKGDKELFLNIVGFDQEKLQQEYQQSELPNFVFTGTTTWAGGETKEYYAQQQVNVVNNAINETSPYYLGREHDLFFKGHPRGGIINDIILGSFNNMIDIPAKVSFEVLMMTGMLPDTVGGIASSLYFSIPAEKVSFIVFTSSDTITDREDALKSPLVQVMMTLGIVKEKDVLFWC

Columns and labels:
Assay type in all cases: biochemical, Photobacterium leiognathi
[1] = test system: recombinant β-galactoside-α2,6-sialyltransferase N1C0; experiment: Transfer of sialic acid to glycoproteins; conditions: enzyme +; 30° C. for 0.5 hours
Protocol: As a glycosyl acceptor substrate, asialofetuin and asialomucin were each used. Asialofetuin or asialomucin (2 mg) was dissolved in 1 ml of 20 mM Bis-Tris buffer (pH 7.0) and used as a glycosyl acceptor substrate solution. As a glycosyl donor substrate, CMP-NeuAc was used. The glycosyl acceptor substrate solution (40 μl), the glycosyl donor substrate (5 μl) and the enzyme solution (5 μl) were mixed and incubated at 30° C. for 0.5 hours to cause sialic acid transfer reaction. After completion of the reaction, the reaction solution was gel-filtered by being applied to a Sephadex G-50 Superfine (0.8×18.0 cm) equilibrated with 0.1 M sodium chloride. A glycoprotein-containing eluate fraction (2-4 ml fraction) from gel filtration was collected and measured for its radioactivity using a liquid scintillation counter to quantify sialic acid transferred to the glycosyl acceptor substrate.

[2] = test system: β-galactoside-α2,6-sialyltransferase from the strain JT-SHIZ-145; experiment: Sialyltransferase activity measurement of crude enzyme solution from E. coli transformed with SHIZ145-N1C0/pTrc99A (14C CMP-NeuAc donor, lactose acceptor); conditions: insert +, 120 mM lactose, 0.5 M NaCl, 30° C. for 30 minutes
Protocol: Among the two expression vectors obtained above, SHIZ145-N1C0/pTrc99A was used to perform an induction experiment of protein expression. A single colony of E. coli TB1 having the expression vector pTrc99A carrying the SHIZ145-N1C0 clone (SEQ ID NO: 3) was inoculated into LB medium (6 ml) containing an antibiotic, ampicillin (final concentration […]), and pre-cultured at 30° C. to about A600=0.5, followed by addition of IPTG (isopropyl-β-D(−)-thiogalactopyranoside, Wako Pure Chemical Industries, Ltd., Japan) at a final concentration of 1 mM to initiate expression induction. After culturing overnight with shaking at 30° C., the cells in 2 ml culture solution were collected by centrifugation. These cells were suspended in 400 μl of 20 mM Bis-Tris buffer (pH 6.0) containing 0.336% Triton X-100, and ultrasonically homogenized under ice cooling. The resulting homogenate was defined as a crude enzyme solution and provided for sialyltransferase activity measurement. Measurement was accomplished as described in J. Biochem., 120, 104-110 (1996) (hereby incorporated by reference in its entirety). […] Radioactivity was measured for the reaction product, i.e., sialyllactose contained in the eluate from the column to calculate the enzyme activity.

[3] = test system: recombinant β-galactoside-α2,6-sialyltransferase N1C0; experiment: Optimum pH for enzyme activity; conditions: phosphate buffer, 30° C.
Protocol: Acetate buffer (pH 4-5), cacodylate buffer (pH 5-6), Bis-Tris buffer (pH 6-7), phosphate buffer (pH 6-9.5), Tris-HCl buffer (pH 7-9.5), TAPS buffer (pH 8-9), CHES buffer (pH 9-10) and CAPS buffer (pH 10-11) were prepared and used for enzyme activity measurement at 30° C. at various pH values.
It should be noted that enzyme activity at each pH was evaluated as relative activity, assuming that the enzyme activity at pH 8.0 in phosphate buffer was set to 1.

[4] = test system: recombinant β-galactoside-α2,6-sialyltransferase N1C0; experiment: Optimum temperature for enzyme activity; conditions: phosphate buffer (pH 8.0), 10° C. up to 50° C.
Protocol: The enzyme activity was measured at an interval of 5° C. starting from 10° C. up to 50° C. using phosphate buffer (pH 8.0).
As a result, as shown in FIG. 2-2, the enzyme activity was maximum at 30° C. It should be noted that enzyme activity at each temperature was evaluated as relative activity, assuming that the enzyme activity at 30° C. was set to 100.

[5] = test system: β-galactoside-α2,6-sialyltransferase; experiment: Binding mode of sialic acid: reaction with PA-lactose and CMP-NeuAc, HPLC analysis; conditions: pyridylaminated lactose as glycosyl acceptor
Protocol: To determine the binding mode of sialic acid, a reaction using PA-lactose as a substrate was then performed. The enzymatic reaction was accomplished by using the resulting crude enzyme solution and a pyridylaminated sugar chain as a glycosyl acceptor substrate. The pyridylaminated sugar chain used for analysis was pyridylaminated lactose (Galβ1-4Glc-PA, Takara Bio Inc., Japan). To 5 μl of the crude enzyme solution, 1.5 μl of 5 mM CMP-NeuAc and 1.5 μl of 10 pmol/μl glycosyl acceptor substrate were added and reacted at 25° C. for 18 hours. After completion of the reaction, the reaction solution was treated at 100° C. for 2 minutes to inactivate the enzyme, followed by HPLC to analyze the reaction product. The HPLC system used was Shimadzu LC10A (Shimadzu Corporation, Japan) and the analytical column used was Takara PALPAK Type R (Takara Bio Inc., Japan). […] The analysis was performed under the following conditions: flow rate: 1 ml/min, column temperature: 40° C., detection: fluorescence (Ex: 320 nm, Em: 400 nm).
Further analysis was performed to examine whether sialyltransferase expressed by E. coli cells transformed in (5) above with SHIZ145-N1C0/pTrc99A had β-galactoside-α2,6-sialyltransferase activity. […] As a result, PA-6′-sialyllactose (Neu5Acα2-6Galβ1-4Glc-PA) was detected, as in the case of Example 1.

Molecule	NeuAc transferred (cpm) [1]	NeuAc transferred (cpm) [2]	pH at which the enzyme activity reached maximum [3]	temperature at which the enzyme activity was maximum [4]	PA-6′-sialyllactose (Neu5Acα2-6Galβ1-4Glc-PA) product [5]
Asialofetuin: glycoprotein used as glycosyl acceptor substrate	2140 cpm and 2038 cpm	–	–	–	–
B1	–	8326 cpm	8.0	30 °C	detected
